Patent US20240102052A1 (VNV NEWCO, published 2024)
Where a chain is given by its changes, count along the chain named. Names and notes keep the numbering of the source.

B1: PNMA2 C136S mutant (other)
chain: MALALLEDWCRIMSVDEQKSLMVTGIPADFEEAEIQEVLQETLKSLGRYRLLGKIFRKQENANAVLLELLEDTDVSAIPSEVQGKGGVWKVIFKTPNQDTEFLERLNLFLEKEGQTVSGMFRALGQEGVSPATVPSISPELLAHLLGQAMAHAPQPLLPMRYRKLRVFSGSAVPAPEEESFEVWLEQATEIVKEWPVTEAEKKRWLAESLRGPALDLMHIVQADNPSISVEECLEAFKQVFGSLESRRTAQVRYLKTYQEEGEKVSAYVLRLETLLRRAVEKRAIPRRIADQVRLEQVMAGATLNQMLWCRLRELKDQGPPPSFLELMKVIREEEEEEASFENESIEEPEERDGYGRWNHEGDD
B2: wild type PNMA2 (other)
chain: B1 chain with S136C
notes: Self-associating capsid subunit
B3: PNMA2 C10S mutant (other)
chain: B1 chain with C10S, S136C
B4: PNMA2 C233S mutant (other)
chain: B1 chain with S136C, C233S
B5: PNMA2 C310S mutant (other)
chain: B1 chain with S136C, C310S

Target: the molecule itself
Assay: SDS-PAGE and western blot, self-association

Binding result, binds:
B1
B2
B3
B4
B5
